The record followed here is article PMC4769845, “Structures of EccB1 and EccD1 from the core complex of the mycobacterial ESX-1 type VII secretion system” (BMC Structural Biology, 2016).

Data set [1] deals with the molecule itself. Put plainly: crystal structure; cyto-EccD1mt alone; sitting drop, 0.1 M Tris-HCl pH 8.5, 0.2 M Mg chloride, 30 % PEG4000; two molecules in the asymmetric unit; 1.88 Å.
Data set [2] concerns the molecule itself. Description: crystal structure; MBP-cyto-EccD1mt fusion, maltose-bound; sitting drop, 0.1 M HEPES pH 7.5, 1.4 M Na citrate; two molecules in the asymmetric unit; 2.20 Å.

B1: cytoplasmic domain of EccD1 from M. tuberculosis (cyto-EccD1mt) (domain or fragment)
chain: ATTRVTILTGRRMTDLVLPAAVPMETYIDDTVAVLSEVLEDTPADVLGGFDFTAQGVWAFARPGSPPLKLDQSLDDAGVVDGSLLTLVS
notes: also called Rv3877; not shown: His6, N-terminal, cleaved
For the protein B1, the binding result in data set [1] is reported as “binds”.

B2: cyto-EccD1mt fused to maltose binding protein (MBP-cyto-EccD1mt) (domain or fragment)
chain: B1 chain
notes: EccD1 (Rv3877) of Mycobacterium tuberculosis H37Rv, cytoplasmic ubiquitin-like domain, residues 21-109, the same DNA fragment as in m1, placed after MBP; also called MBP fusion protein; not shown: His6, N-terminal, cleaved; MBP, N-terminal, kept
With B2, the binding result in data set [2] is “binds”.
